The source of these data is patent publication US20240317826A1, “COMPOSITIONS AND METHODS FOR TREATING AND/OR I[…] AGENT FOR TREATING HIV-1 INFECTIONS” (priority 2021, published 2024).

Assay [1] deals with T1, IN-CTD (Human immunodeficiency virus type 1 group M subtype B, UniProt P04585).
T1 construct: pGEX3x-IN and pGST-IN-CTD(aa 201-288) were used as templates; made in house; host or cells: bacteria (E. coli)
The experiment in a line: Alpha proximity assay, binding of His6-SUMO-INI1183-304 to GST-CTD. More on the design: species or system HIV-1. As to the method: FIG. 16A-FIG. 16H show quantitative Alpha protein-protein interaction assay to determine the interaction of IN, CTD, and the mutants with INI1 and INI1183-304. […] A titration curve was generated with increasing concentrations of His6-SUMO-INI1183-304 with two different fixed concentration of GST-CTD and the interactions were detected as Alpha Score. The KD values were determined by nonlinear regression analysis using specific binding with Hill slope analysis in GraphPad Prism. Data from one representative experiment is depicted. FIG. 16B and FIG. 16C show effect of salt on the interactions of GST-CTD either with His6-SUMO-INI1183-304 or biotinylated(Bio)-TAR RNA (n=3 independent experiments). The interaction was tested using fixed concentrations of GST-CTD (0.75 μM) and increasing concentrations of His6-SUMO-INI1183-304 (or Bio-TAR RNA) in two different NaCl conditions (100 and 500 mM). […] The IC50 values were determined by fitting the data to a four-parameter dose-response curve using GraphPad prism. […]
AlphaScreen proximity assay to detect the protein-protein and protein-RNA interactions. […] The Alpha score readings were measured using Alpha-compatible Envision 2105 multi-plate reader (Perkin-Elmer). All the experiments related to this method were carried out 3 to 5 times and data were analyzed by using Graph Pad Prism 9 version 9.0.0 (GraphPad Software, CA). […]

The subject of assay [2] is HIV-1 particle production. The note with it: by binding to IN within GagPol; cited from earlier work.

B1: INI1183-304: INI1 fragment aa 183-304 (Rpt1, linker, part of Rpt2), expressed as His6-SUMO fusion (protein)
chain: PEVLVPIRLDMEIDGQKLRDAFTWNMNEKLMTPEMFSEILCDDLDLNPLTFVPAIASAIRQQIESYPTDSILEDQSDQRVIIKLNIHVGNISLVDQFEWDMSEKENSPEKFALKLCSELGLG
modifications: left off: large carriers
notes: INI1 fragment aa 183-304 (Rpt1, linker, part of Rpt2), expressed as His6-SUMO fusion
With B1, the “KD for binding, IN-CTD/INI1183-304” value in assay [1] was “low nM”.

B2: S6: INI1 fragment (aa 183-294) harboring the Rpt1 domain, linker region and a part of Rpt2 (protein, UniProt Q12824 183-294, looked up, fragment)
chain: PEVLVPIRLDMEIDGQKLRDAFTWNMNEKLMTPEMFSEILCDDLDLNPLTFVPAIASAIRQQIESYPTDSILEDQSDQRVIIKLNIHVGNISLVDQFEWDMSEKENSPEKFA
On to B2, for which the “inhibition of HIV-1 particle production” value in assay [2] is “trans-dominantly inhibits HIV-1 particle production”.
